Assay results taken from paper doi:10.1101/2023.03.22.533679, “Selective inhibitors of the Aurora A-TPX2 protein-protein interaction exhibit in vivo efficacy as targeted anti-mitotic agents” (bioRxiv, 2023).
Where no end group is shown, it is not given here.

Key:
[1] = biological target: T1, Aurora A kinase domain (residues 126-390) with hexa-His tag (human, UniProt O14965 126-390); assay: fluorescence polarisation; direct titration of up to 200 nM Aurora A to 11 nM labelled TPX2 peptide; 100 mM HEPES pH 7.4, 100 mM magnesium acetate, 50 mM NaCl, 0.02% P20, 1 mM DTT, 1 mM ATP, 10% (v/v) DMSO; details: both partners purified
T1 construct: Aurora A, human, kinase domain only, residues 126-390, Uniprot O14965; construct for biophysical assays; No removal of the His tag is described; The crystallography constructs differ (Thr287Ala or Cys290Ala; or residues 126-391 without His tag); also called Aurora A protein; pBAT4-AurAS.003 construct; source: E. coli BL21(DE3) with pUBS520, co-expressed with lambda phosphatase, purified (HisTrap, …)
T1 sequence (looked up): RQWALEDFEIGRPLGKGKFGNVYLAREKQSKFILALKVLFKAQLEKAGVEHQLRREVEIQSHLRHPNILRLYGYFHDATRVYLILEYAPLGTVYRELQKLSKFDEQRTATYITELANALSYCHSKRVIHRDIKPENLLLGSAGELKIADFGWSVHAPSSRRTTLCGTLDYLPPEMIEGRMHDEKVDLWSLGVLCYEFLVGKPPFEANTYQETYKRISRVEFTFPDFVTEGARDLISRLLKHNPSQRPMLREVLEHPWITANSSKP

[2] = biological target: T1, Aurora A kinase domain (residues …); assay: ligand-based NMR competition; ligand-based NMR of fragment hits with Aurora A; displacement of the fragments by the TPX2 peptide fragment 7-22; details: both partners purified

B1: TPX2 peptide (residues 7-43) with C-terminal GGGCSS tail, labelled with Alexa Fluor 488 (peptide)
peptide: SYSYDAPSDFINFSSLDDEGDTQNIDSWFEEKANLENGGGC(Alexa Fluor 488 C5 maleimide)SS
notes: TPX2 (Targeting protein for Xenopus kinesin-like protein 2), residues 7-43, Uniprot Q9ULW0; C-terminal tail that carries the cysteine for labelling; also called labelled TPX2 peptide; labelled TPX2; source: E. coli, purified (Ni Sepharose, labelled, cleaved with HRV 3C protease, second Ni Sepharose, reversed phase C18); not shown: His-tag, N-terminal, cleaved; GB1, N-terminal, cleaved
In the case of B1, the Kd [1] is reported as 1.2 nM.

B2: TPX2 peptide fragment (amino acids 7-22) (peptide, UniProt Q9ULW0 7-22, looked up)
peptide: SYSYDAPSDFINFSSL
notes: TPX2, amino acids 7-22; Uniprot Q9ULW0 is printed for the longer TPX2 peptide of the methods
B2: binds [2].
